Laboratory results: patent US20260008815A1, “CYCLIC PEPTIDE OR SALT THEREOF, AND USES THEREOF” (FUJIFILM Corporation, priority 2023, published 2026)
Bridge positions count the residues as written; N and C are the ends. Ends that are not written are not given here. COCH2 = acetyl group that carries the bridge

T1: FGFR1 Protein, Human, Recombinant (His Tag) (Sino Biological, 10616-H08H) (human, UniProt P11362 22-376)
T1 construct: bought; not shown: His tag
T1 sequence (looked up): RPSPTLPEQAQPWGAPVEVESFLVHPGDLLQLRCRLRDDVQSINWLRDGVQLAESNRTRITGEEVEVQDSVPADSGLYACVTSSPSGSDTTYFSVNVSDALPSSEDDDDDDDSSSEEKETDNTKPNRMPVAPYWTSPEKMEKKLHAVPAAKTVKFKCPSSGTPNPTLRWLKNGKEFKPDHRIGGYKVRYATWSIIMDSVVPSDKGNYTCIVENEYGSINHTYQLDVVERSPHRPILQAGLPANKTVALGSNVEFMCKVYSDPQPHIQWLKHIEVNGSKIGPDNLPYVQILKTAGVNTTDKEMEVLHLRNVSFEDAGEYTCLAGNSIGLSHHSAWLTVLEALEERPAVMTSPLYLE

T2: FGFR3 Protein, Human, Recombinant (ECD, His Tag) (Sino Biological, 16044-H08H) (human, UniProt P22607 23-375)
T2 construct: extracellular domain; bought; not shown: His tag
T2 sequence (looked up): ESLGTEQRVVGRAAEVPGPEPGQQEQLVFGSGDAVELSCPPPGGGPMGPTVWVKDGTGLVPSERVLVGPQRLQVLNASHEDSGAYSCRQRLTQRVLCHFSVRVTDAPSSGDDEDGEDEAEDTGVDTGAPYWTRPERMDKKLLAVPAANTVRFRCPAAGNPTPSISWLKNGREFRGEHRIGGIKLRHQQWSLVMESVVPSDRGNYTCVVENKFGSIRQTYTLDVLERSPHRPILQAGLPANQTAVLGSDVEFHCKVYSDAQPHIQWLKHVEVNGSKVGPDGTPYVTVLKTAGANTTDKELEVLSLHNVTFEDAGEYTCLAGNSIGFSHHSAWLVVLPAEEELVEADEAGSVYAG

T3: FGFR4 Protein, Human, Recombinant (His Tag) (Sino Biological, 10538-H08H) (human, UniProt P22455 22-369)
T3 construct: bought; not shown: His tag
T3 sequence (looked up): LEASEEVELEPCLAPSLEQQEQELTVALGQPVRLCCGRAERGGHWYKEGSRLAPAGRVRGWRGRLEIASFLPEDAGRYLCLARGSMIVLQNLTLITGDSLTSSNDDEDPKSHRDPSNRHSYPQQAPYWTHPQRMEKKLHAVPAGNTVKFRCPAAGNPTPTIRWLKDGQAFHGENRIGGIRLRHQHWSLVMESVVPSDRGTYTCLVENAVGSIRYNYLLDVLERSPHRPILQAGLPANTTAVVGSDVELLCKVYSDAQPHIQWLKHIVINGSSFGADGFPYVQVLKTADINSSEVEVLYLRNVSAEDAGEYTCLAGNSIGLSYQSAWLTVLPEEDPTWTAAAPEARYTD


Legend:
[1] = test system: bovine myoblasts; assay: Bovine myoblast proliferation-promoting effect; assay type: cell-based, Japanese Black cattle; settings: of 30 ng/mL bFGF (=100, negative control =0); 0.03 to 10 nmol/L complex, 4 days
Experimental: The bovine cells (myoblasts) proliferation-promoting effect of the cyclic peptide complex was evaluated.
Bovine myoblasts were separated from bovine muscle tissue by the following method. First, muscle tissue of Japanese Black cattle was finely chopped in HBSS (−) (phenol red-free) (FUJIFILM Wako Pure Chemical Corporation, 085-09355), and then pronase from Streptomyces griseus (Sigma-Aldrich, 10165921001) was added thereto to a final concentration of 1 mg/mL, and the mixture was allowed to stand at 37° C. for 1 hour. After allowing to stand, HBSS containing 10% FBS was added thereto, and the cells were acquired by centrifugation. The acquired cells were suspended in D-MEM (high glucose) (containing L-glutamine and phenol red) (FUJIFILM Wako Pure Chemical Corporation, 044-29765) containing 10% final concentration of bovine serum and 30 ng/mL bFGF. Suspended cells were cultured in a culture flask coated with an iMatrix-511 solution (FUJIFILM Wako Pure Chemical Corporation, 381-07363) at 0.55 μg/cm^2. […]
The evaluation of the proliferation-promoting effect on bovine myoblasts was performed by the following method. […] The number of viable cells was calculated from the imaging data and normalized by setting the number of viable cells in the well to which 30 ng/mL bFGF was added to 100, and setting the number of viable cells in the negative control well to 0.

[2] = biological target: T1, FGFR1 Protein, Human, Recombinant (His …); assay: SPR, 1 umol/L FGFR over immobilized peptide
Experimental: (§1) Next, 70 μL of a mixed aqueous solution of 0.2 mol/L 1-(3-dimethylaminopropyl)-3-ethylcarbodiimide (EDC) and 0.05 mol/L N-hydroxysuccinimide (NHS) was added to activate the sensor chip. Then, a cyclic peptide prepared to 2 mg/mL in HBS-EP buffer was added thereto to perform immobilization at about 200 RU. Thereafter, the blocking treatment was performed with an ethanolamine solution. In addition, in another flow channel of the same sensor chip, blocking treatment was performed immediately after activation without immobilizing FGFR.
(§2) After various FGFRs (FGFR1 Protein, Human, Recombinant (His Tag) (Sino Biological, 10616-H08H), FGFR2 Protein, Human, Recombinant (His Tag) (Sino Biological, 10824-H08H), FGFR3 Protein, Human, Recombinant (ECD, His Tag) (Sino Biological, 16044-H08H), FGFR4 Protein, Human, Recombinant (His Tag) (Sino Biological, 10538-H08H)) diluted with HBS-EP to 1 μmol/L at 25° C. was added to each flow channel of the cyclic peptide-immobilized sensor chip prepared above, for 10 minutes, HBS-EP was allowed to flow as a running buffer for 30 minutes, and the binding of various FGFRs to the cyclic peptide was measured. Thereafter, a regeneration treatment of removing the bound FGFR was performed by repeating the flow of a regeneration liquid in which sodium chloride (final concentration: 0.4 mol/L) and a sodium dodecyl sulfate aqueous solution (mixed concentration: 1%, final concentration: 0.2%) were dissolved in Glysine 1.5 (Cytiva, BR100354) for 1 minute in each flow channel twice. The binding amount of the cyclic peptide was evaluated from the difference between the measured value of Biacore-T200 in the flow channel in which the cyclic peptide was immobilized and the measured value of Biacore-T200 in the flow channel in which the cyclic peptide was not immobilized, in a case where 1 μmol/L FGFR was allowed to flow.
(§3) The binding amount of FGFR evaluated above was normalized to the binding amount of FGFR molecules per one molecule of the cyclic peptide using the molecular weights of the cyclic peptide and FGFR, and the binding affinity to FGFR was evaluated according to the following evaluation criteria. The evaluation result preferably satisfies the evaluation criteria A, B, or C.

[3] = biological target: T4, FGFR2 Protein, Human, Recombinant (His Tag) (Sino Biological, 10824-H08H) (human, UniProt P21802 22-377); assay: SPR, 1 umol/L FGFR over immobilized peptide
T4 construct: bought; not shown: His tag
T4 sequence (P21802 22-377 limits assumed): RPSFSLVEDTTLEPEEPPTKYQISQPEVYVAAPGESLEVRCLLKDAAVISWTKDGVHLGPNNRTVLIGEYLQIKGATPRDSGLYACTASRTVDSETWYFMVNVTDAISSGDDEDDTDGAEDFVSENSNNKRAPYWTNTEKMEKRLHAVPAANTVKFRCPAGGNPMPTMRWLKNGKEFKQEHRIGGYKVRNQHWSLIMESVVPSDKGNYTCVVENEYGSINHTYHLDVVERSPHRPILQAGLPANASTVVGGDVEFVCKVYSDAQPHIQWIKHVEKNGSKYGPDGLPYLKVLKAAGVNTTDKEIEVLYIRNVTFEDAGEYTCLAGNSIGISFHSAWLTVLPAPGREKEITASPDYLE
Experimental: as §1, §2, §3

[4] = biological target: T2, FGFR3 Protein, Human, Recombinant (ECD, …); assay: SPR, 1 umol/L FGFR over immobilized peptide
Experimental: as §1, §2, §3

[5] = biological target: T3, FGFR4 Protein, Human, Recombinant (His …); assay: SPR, 1 umol/L FGFR over immobilized peptide
Experimental: as §1, §2, §3

[6] = biological target: T5, Recombinant Human FGFR2 alpha (IIIc) Fc Chimera Protein, CF (R&D systems, 712-FR-050) (human, UniProt P21802 22-377); assay: SPR, 10 nmol/L peptide over immobilized FGFR2-Fc
T5 construct: bought; not shown: Fc part of the chimera
T5 sequence (P21802 22-377, change not shown): as the sequence (P21802 22-377 limits assumed) above
Experimental: A CM5 sensor chip (Cytiva, 29149603) was set in Biacore-T200 (manufactured by Cytiva) which is a surface plasmon resonance device, and an HBS-EP buffer (Cytiva, BR100826) was added as a running buffer at a flow rate of 10 μL/min to equilibrate the flow channel. Next, 70 μL of a mixed aqueous solution of 0.2 mol/L 1-(3-dimethylaminopropyl)-3-ethylcarbodiimide (EDC) and 0.05 mol/L N-hydroxysuccinimide (NHS) was added to activate the sensor chip. Then, Recombinant Human FGFR2 alpha (IIIc) Fc Chimera Protein CF (R&D systems, 712-FR-050) prepared at 50 nmol/L in an Acetate 4.5 buffer (Cytiva, BR100350) was added thereto to perform immobilization at about 5000 RU. Thereafter, the blocking treatment was performed with an ethanolamine solution. In addition, in another flow channel of the same sensor chip, blocking treatment was performed immediately after activation without immobilizing FGFR.
A cyclic peptide diluted to 10 nmol/L using HBS-EP was added to each flow channel of the FGFR-immobilized sensor chip produced above at 25° C. for 10 minutes, then HBS-EP was allowed to flow as a running buffer for 30 minutes, and the binding of the cyclic peptide to FGFR was measured. Thereafter, a regeneration treatment of removing the bound cyclic peptide was performed by repeating the flow of a regeneration liquid in which sodium chloride powder was dissolved in Glysine 1.5 (Cytiva, BR100354) to a final concentration of 0.15 mol/L for 1 minute in each flow channel twice. The binding amount of the cyclic peptide was evaluated from the difference between the measured value of Biacore-T200 in the flow channel in which FGFR was immobilized and the measured value of Biacore-T200 in the flow channel in which FGFR was not immobilated, in a case where a 10 nmol/L cyclic peptide was allowed to flow.

binding amount (SPR, FGFR molecules bound per cyclic peptide molecule) [2] | binding amount (SPR, FGFR molecules bound per cyclic peptide molecule) [3] | binding amount (SPR, FGFR molecules bound per cyclic peptide molecule) [4] | binding amount (SPR, FGFR molecules bound per cyclic peptide molecule) [5] | binding amount (SPR, cyclic peptide molecules bound per FGFR molecule at 10 nmol/L peptide) [6] | Molecule | bovine myoblast proliferation action [1]
 |  |  |  |  | Q-(C)-PQNFINPVQWRYFQHY-(K(acetyl))-NK (QCPQNFINPVQWRYFQHYK(COCH2)NKQCPQNFINPVQWRYFQHYK(COCH2)NK; thioether 2-19, 23-40; not fully specified (N-terminus, bridges); also: Bis-NHS-PEG9 crosslink, dimer of two 21-mers) [SEQ ID NO: 458, cyclic peptide complex; N-terminal acetylation, crosslinking between side chain amino groups of K via Bis-NHS-PEG9] | about 40%
0.01 to 0.05 moleculesoffgfr/onemoleculeofthecyclicpeptide | ≥ 0.05 moleculesoffgfr/onemoleculeofthecyclicpeptide | 0.01 to 0.05 moleculesoffgfr/onemoleculeofthecyclicpeptide | 0.01 to 0.05 moleculesoffgfr/onemoleculeofthecyclicpeptide | ≥ 0.7 moleculesofthecyclicpeptide/onemoleculeoffgfr | YCEENYLDPEQYQYFIYFK(COCH2)YKKK (thioether 2-19, chemically synthesized) [cyclic peptide SEQ ID NO: 450] | 
